Here are results for eight molecules from article PMC9592557, “Structures of SAS-6 coiled coil hold implications for the polarity of the centriolar cartwheel” (Structure(London, England:1993), 2022).

The target of data set [1] is DrSAS-6_CC_(Middle) (Danio rerio) (UniProt Q7ZVT3). Nature of the data set: SEC-MALS; step: monomers to the coiled-coil dimer; Superdex 75 or 200 10/300 GL, 10 mM K-PIPES pH 7.2.
The target in data set [2] is HsSAS-6_CC_(Middle) (human) (UniProt Q6UVJ0). The data set is described as above.
Data set [3] concerns the molecule itself. Nature of the data set: cryo-EM cartwheel reconstitution (ring stacking) assay; purified protein dialysed overnight at 4°C into 10 mM K-PIPES pH 7.2 (no salt), vitrified, isolated cartwheels analysed.
Data set [4] deals with the molecule itself. Briefly: ITC.
Data set [5] has as its target CrSAS-6_CC_(Middle) (C. reinhardtii) (UniProt A9CQL4). Nature of the data set: SEC-MALS; step: monomers to the coiled-coil dimer; Superdex 75 or 200 10/300 GL, 10 mM K-PIPES pH 7.2.
The target is the same in data set [6]. Nature of the data set: ITC; dilution ITC, step: higher-order complex to coiled-coil dimers; 1.82 mM monomer in the syringe injected into buffer alone, 20°C, 10 mM K-PIPES pH 7.2, dissociation model.

In the case of “DrSAS-6_CC_(Middle) (from UniProt Q7ZVT3 243-358) (domain or fragment)”, the stoichiometry N in data set [1] came out at 2.
“HsSAS-6_CC_(Middle) (from UniProt Q6UVJ0 211-312) (domain or fragment)” gave a stoichiometry N in data set [2] of 2.

B1: CrSAS-6NL (domain or fragment, C. reinhardtii, UniProt A9CQL4 1-503, looked up)
chain: MPLLLDDGDPKAQTGFDLSTATTLFWRPVPVHVKQQDREDVLEELTFRILTGVAKQNHNLRILRIHISSDSDLFFLHTLEVSEEDFQSLKNDQGILVDFASFPGKIISLLEKCILAQPGDSPRFQAVLTIRGGESVFKIVEINDFKQLPHITLAFRPGNDSVVKQFLAFRLSEVKGTCHDLSDDLSRTRDDRDSMVAQLAQCRQQLAQLREQYDKHLLEVQAQAKTQQASAHEERIREKSQLKDQFEKERGEMEGRYRDQIAALNTRLGELDTENRKLREVKYELDTKVSELSHKLGSSEGSNRSLEEETARLRSLNQQLSSSKHELEIQLNEAKAKVLALDEKAQSQGDVIEQQRGRLRDMEAALRQTEQRCADLRDTLASAEGRAKEAQAEVLKGNQAIEKLTNDLRLAKEKTKRKAAIILRQEEELQEREQSLANATRDVGVLGQQAESLRKDVASLHSENDSLRSKLEDSKQQLQSNEQMIRWLNQQVTEAQLHASGAT
notes: C. reinhardtii SAS-6, residues 1-503: head domain and full-length coiled-coil domain, without the disordered C-terminal tail; also called WT CrSAS-6NL; C. reinhardtii SAS-6 (1-503); source: E. coli BL21(DE3), purified (HiTrap Talon, 3C cleavage, SEC); not shown: His6, N-terminal, cleaved
Take B1: the binding result in data set [3] is recorded as “binds”.

B2: CrSAS-6LD (domain or fragment, C. reinhardtii, UniProt A9CQL4 1-503, looked up)
chain: MPLLLDDGDPKAQTGFDLSTATTLFWRPVPVHVKQQDREDVLEELTFRILTGVAKQNHNLRILRIHISSDSDLFFLHTLEVSEEDFQSLKNDQGILVDFASFPGKIISLLEKCILAQPGDSPRFQAVLTIRGGESVFKIVEINDFKQLPHITLAFRPGNDSVVKQFLAFRLSEVKGTCHDLSDDLSRTRDDRDSMVAQLAQCRQQLAQLREQYDKHLLEVQAQAKTQQASAHEERIREKSQLKDQFEKERGEMEGRYRDQIAALNTRLGELDTENRKLREVKYELDTKVSELSHKLGSSEGSNRSLEEETARLRSLNQQLSSSKHELEIQLNEAKAKVEALDEKAQSQGDVIEQQRGRLRDMEAALRQTEQRCADLRNTLASAEGRAKEAQAEVLKGNQAIEKLTNDLRLAKEKTKRKAAIILRQEEELQEREQSLANATRDVGVLGQQAESLRKDVASLHSENDSLRSKLEDSKQQLQSNEQMIRWLNQQVTEAQLHASGAT
notes: C. reinhardtii SAS-6, residues 1-503, mutant aimed at the symmetric coiled-coil complex; also called C. reinhardtii SAS-6 (1-503; L339E/D378N); source: E. coli BL21(DE3), purified (HiTrap Talon, 3C cleavage, SEC); not shown: His6, N-terminal, cleaved
Consider B2, for which, in data set [3], the binding result was “binds”.

B3: CrSAS-6LQ (domain or fragment, C. reinhardtii, UniProt A9CQL4 1-503, looked up)
chain: MPLLLDDGDPKAQTGFDLSTATTLFWRPVPVHVKQQDREDVLEELTFRILTGVAKQNHNLRILRIHISSDSDLFFLHTLEVSEEDFQSLKNDQGILVDFASFPGKIISLLEKCILAQPGDSPRFQAVLTIRGGESVFKIVEINDFKQLPHITLAFRPGNDSVVKQFLAFRLSEVKGTCHDLSDDLSRTRDDRDSMVAQLAQCRQQLAQLREQYDKHLLEVQAQAKTQQASAHEERIREKSQLKDQFEKERGEMEGRYRDQIAALNTRLGELDTENRKLREVKYELDTKVSELSHKLGSSEGSNRSLEEETARLRSLNQQASSSKHELEIALNEAKAKVLALDEKAQSQGDVIEQQRGRLRDMEAALRQTEQRCADLRDTLASAEGRAKEAQAEVLKGNQAIEKLTNDLRLAKEKTKRKAAIILRQEEELQEREQSLANATRDVGVLGQQAESLRKDVASLHSENDSLRSKLEDSKQQLQSNEQMIRWLNQQVTEAQLHASGAT
notes: C. reinhardtii SAS-6, residues 1-503, control mutant; also called C. reinhardtii SAS-6 (1-503; L320A/Q330A); source: E. coli BL21(DE3), purified (HiTrap Talon, 3C cleavage, SEC); not shown: His6, N-terminal, cleaved
For B3, the binding result in data set [3] is on record as “binds”.

B4: CrSAS-6VD (domain or fragment, C. reinhardtii, UniProt A9CQL4 1-503, looked up)
chain: MPLLLDDGDPKAQTGFDLSTATTLFWRPVPVHVKQQDREDVLEELTFRILTGVAKQNHNLRILRIHISSDSDLFFLHTLEVSEEDFQSLKNDQGILVDFASFPGKIISLLEKCILAQPGDSPRFQAVLTIRGGESVFKIVEINDFKQLPHITLAFRPGNDSVVKQFLAFRLSEVKGTCHDLSDDLSRTRDDRDSMVAQLAQCRQQLAQLREQYDKHLLEVQAQAKTQQASAHEERIREKSQLKDQFEKERGEMEGRYRDQIAALNTRLGELDTENRKLREVKYELDTKVSELSHKLGSSEGSNRSLEEETARLRSLNQQLSSSKHELEIQLNEAKAKVLALDEKAQSQGDEIEQQRGRLRNMEAALRQTEQRCADLRDTLASAEGRAKEAQAEVLKGNQAIEKLTNDLRLAKEKTKRKAAIILRQEEELQEREQSLANATRDVGVLGQQAESLRKDVASLHSENDSLRSKLEDSKQQLQSNEQMIRWLNQQVTEAQLHASGAT
notes: C. reinhardtii SAS-6, residues 1-503, mutant aimed at the asymmetric coiled-coil complex; also called C. reinhardtii SAS-6 (1-503 V351E/D361N); source: E. coli BL21(DE3), purified (HiTrap Talon, 3C cleavage, SEC); not shown: His6, N-terminal, cleaved
Regarding B4, the binding result in data set [3] is reported as “binds”.

B5: CrSAS-6LE (domain or fragment, C. reinhardtii, UniProt A9CQL4 1-503, looked up)
chain: MPLLLDDGDPKAQTGFDLSTATTLFWRPVPVHVKQQDREDVLEELTFRILTGVAKQNHNLRILRIHISSDSDLFFLHTLEVSEEDFQSLKNDQGILVDFASFPGKIISLLEKCILAQPGDSPRFQAVLTIRGGESVFKIVEINDFKQLPHITLAFRPGNDSVVKQFLAFRLSEVKGTCHDLSDDLSRTRDDRDSMVAQLAQCRQQLAQLREQYDKHLLEVQAQAKTQQASAHEERIREKSQLKDQFEKERGEMEGRYRDQIAALNTRLGELDTENRKLREVKYELDTKVSELSHKLGSSEGSNRSAEEETARLRSLNQQLSSSKHALEIQLNEAKAKVLALDEKAQSQGDVIEQQRGRLRDMEAALRQTEQRCADLRDTLASAEGRAKEAQAEVLKGNQAIEKLTNDLRLAKEKTKRKAAIILRQEEELQEREQSLANATRDVGVLGQQAESLRKDVASLHSENDSLRSKLEDSKQQLQSNEQMIRWLNQQVTEAQLHASGAT
notes: C. reinhardtii SAS-6, residues 1-503, control mutant; also called C. reinhardtii SAS-6 (1-503; L306A/E326A); source: E. coli BL21(DE3), purified (HiTrap Talon, 3C cleavage, SEC); not shown: His6, N-terminal, cleaved
As to B5, the binding result in data set [3] is on record as “binds”.

B6: CrSAS-6_CC_(Middle) (domain or fragment)
chain: KLREVKYELDTKVSELSHKLGSSEGSNRSLEEETARLRSLNQQLSSSKHELEIQLNEAKAKVLALDEKAQSQGDVIEQQRGRLRDMEAALRQTEQRCADLRDTLASAEGRAKEA
On to B6, for which binding in data set [4] was characterised by a dissociation constant (Kd) of 2300 µM. In addition, in data set [5], the stoichiometry N was determined as 2. For the same molecule, the dH in data set [6] is 1 kcal/mol.
